Here are results for 72 sequences from the supplement of paper PMC10567573.

This data set is described as follows: protein stability index of a GFP-peptide fusion (GPS, HEK-293T) (PSI 1-6); higher = more stable.
Setting [1] is: treatment: DMSO, c terminus: a fixed tail appended.
Setting [2] is: treatment: MLN4924 1 uM, 8 h, c terminus: a fixed tail appended.

± gives the standard deviation.
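Also: 24-mer peptide tiles fused after GFP, lentivirally expressed, FACS-sorted into six equal bins by GFP/DsRed ratio, decoded by Illumina sequencing, PSI is the read-weighted mean bin number.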

For PVVGSTRRLYEKKIFEYETQRRRL [EMD], the protein stability index under setting [1] turned out to be 3.16 ± 0.25 and the protein stability index under setting [2] came to 3.18 ± 0.06.

For PWKKCCFSGDGEYIVAGSARQHAL [RBBP5], the protein stability index under setting [1] is 2.14 ± 0.27 and the protein stability index under setting [2] stood at 2.36 ± 0.22.

For the sequence QAFCCENDINILRVSNPGRLAELL [GADD45A], the protein stability index amounted to 2.74 ± 0.36 under setting [1] and 2.82 ± 0.34 under setting [2].

On to QAIIESCSRQFPEFQERARKRIRT [NOL4L], for which the protein stability index reads like this: under setting [1], 3.69 ± 0.27; under setting [2], 4.09 ± 0.21.

For QAKEELARMLREYQELMSLKLALD [KRT71], the protein stability index reads like this: under setting [1], 2.61 ± 0.37; under setting [2], 2.77 ± 0.47.

Turning to QALGTHRPVNKLAELQCEVAALRE [RASAL3], the protein stability index came to 3.81 ± 0.38 under setting [1] and 3.75 ± 0.41 under setting [2].

In the case of QAQAVQTEQAVALLRDRTGQQSDT [SCARA5], the protein stability index is, setting by setting: under setting [1], 5.35 ± 0.34; under setting [2], 5.19 ± 0.23.

For the sequence QAQKDPKKDRPLARRKSELPQDPH [PPP2R5C], the protein stability index by setting is: under setting [1], 5.12 ± 0.17; under setting [2], 5.34 ± 0.17.

In the case of QDCGFEHLVPVIEMWADQLTSLKD [CEP70], the protein stability index came to 2.76 ± 0.39 under setting [1] and 2.94 ± 0.53 under setting [2].

As to QEAEEPKARVLRSKSLCHDEIENL [CDC25B], the protein stability index is, setting by setting: under setting [1], 5.37 ± 0.089; under setting [2], 5.57 ± 0.23.

In the case of QECLKQLAIKKQQHIDNITQIEDA [TRIM14], the protein stability index came to 4.93 ± 0.19 under setting [1] and 4.72 ± 0.22 under setting [2].

QELPPYNGFGLVEDSAQNCFALIP [EFHC1]: the protein stability index turned out to be 3.38 ± 0.18 under setting [1] and 3.4 ± 0.24 under setting [2].

For the sequence QERERVLTHFSRRYCQCNPDDSTS [PSD2], the protein stability index by setting is: under setting [1], 3.88 ± 0.14; under setting [2], 3.93 ± 0.14.

As to QGDKAIREQGPREQEPELSFLKQK [PBXIP1], the protein stability index is 5.44 ± 0.33 under setting [1] and 5.42 ± 0.16 under setting [2].

Take QGGGNGQQQQAMSFAILRIIRLVR [KCNA4]: the protein stability index is, setting by setting: under setting [1], 2.46 ± 0.28; under setting [2], 2.67 ± 0.24.

Consider QGWMNLLNMAKKSVDIVSSHWDLN [PLD5], for which the protein stability index runs as follows: under setting [1], 2.9 ± 0.45; under setting [2], 3.46 ± 0.69.

Regarding QIEERHQEKKRKFLESTDSFNNEL [SMARCE1], the protein stability index runs as follows: under setting [1], 4.82 ± 0.25; under setting [2], 5.08 ± 0.37.

On to QIENLNIQVEDIRIRAILSTYRKR [LOXL2], for which the protein stability index reads like this: under setting [1], 2.67 ± 0.28; under setting [2], 2.85 ± 0.37.

For the sequence QITSRVVSAATQLRHFFLVEDLVD [RTN2], the protein stability index by setting is: under setting [1], 2.83 ± 0.24; under setting [2], 3 ± 0.27.

QKNFGLYVQEKRDGLKRRQQLEEE [RAD54B]: the protein stability index reads like this: under setting [1], 4.7 ± 0.32; under setting [2], 4.66 ± 0.2.

In turn, QKQQAPRMDTPPPEERLEKQNEKL [CCDC89] showed a protein stability index under setting [1] of 5.46 ± 0.44 and a protein stability index under setting [2] of 5.62 ± 0.2.

With QKVAVYRALQAALAESGGSPDVLQ [TRADD], the protein stability index is, setting by setting: under setting [1], 2.31 ± 0.36; under setting [2], 2.4 ± 0.46.

The sequence QKVTCFYQPAPYFAAEARYPIYVI [TENT5D] came in with a protein stability index under setting [1] of 2.89 ± 0.4 and a protein stability index under setting [2] of 2.54 ± 0.49.

In the case of QLISRMEYVHSKNLIYRDVKPENF [CSNK1G3], the protein stability index is, setting by setting: under setting [1], 2.37 ± 0.24; under setting [2], 2.42 ± 0.17.

QLPGLLNFGEFKCSDSDKKCHLWT [CLCN6]: the protein stability index runs as follows: under setting [1], 2.56 ± 0.43; under setting [2], 2.45 ± 0.36.

Sequence QLQPTSIEKEVFPIMAKEGQLYAM [GMPPB] returned a protein stability index under setting [1] of 3.1 ± 0.27 and a protein stability index under setting [2] of 2.96 ± 0.5.

Regarding QLYCEKVQGLMKEYLLSFPAGKTP [VPS39], the protein stability index runs as follows: under setting [1], 2.27 ± 0.16; under setting [2], 2.41 ± 0.16.

As for QNGEEGTSTPEDKESGQEGVDSMA [SMARCE1], the protein stability index runs as follows: under setting [1], 5.44 ± 0.17; under setting [2], 5.65 ± 0.29.

With QPAFTGIKGKEGSALTEGAKEEGG [EPB41L3], the protein stability index is, setting by setting: under setting [1], 5.5 ± 0.071; under setting [2], 5.65 ± 0.23.

Regarding QPGLSFLNLGSGTGYLSSMVGLIL [PCMTD2], the protein stability index came to 2.12 ± 0.15 under setting [1] and 2.28 ± 0.27 under setting [2].

In the case of QPPPAPPKKIMPEAHSHYLYGHML [PPFIA4], the protein stability index under setting [1] stood at 2.76 ± 0.26 and the protein stability index under setting [2] worked out at 2.91 ± 0.22.

Sequence QQLYRHGKAYRFLFGFSAVSIMYL [JAGN1] showed a protein stability index under setting [1] of 2.82 ± 0.2 and a protein stability index under setting [2] of 3.28 ± 0.93.

As to QQPPPPRRAGAACTLRQKLIFSPC [WEE1], the protein stability index is, setting by setting: under setting [1], 2.79 ± 0.46; under setting [2], 2.94 ± 0.099.

Consider QSIIAIIRAMGRLKIDFGDSARAD [GNAI1], for which the protein stability index came out at 2.44 ± 0.53 under setting [1] and 2.29 ± 0.93 under setting [2].

Consider QSLTQRLHALKLRSPDASPSRAPP [GNAS], for which the protein stability index under setting [1] stood at 4.06 ± 0.17 and the protein stability index under setting [2] stood at 4.14 ± 0.22.

QSSADGSQPPKKKPKTTNIELQGV [RBBP5]: the protein stability index turned out to be 5.09 ± 0.16 under setting [1] and 5.26 ± 0.36 under setting [2].

QTASRSLVLSEDRKSVRYTRQKKN [TRIM15]: the protein stability index reads like this: under setting [1], 4.83 ± 0.27; under setting [2], 4.8 ± 0.24.

Regarding QTGDPTSPIKLSPTSPVYRGSSSG [MTUS2], the protein stability index reads like this: under setting [1], 4.76 ± 0.26; under setting [2], 4.82 ± 0.2.

Regarding QTNKPALRAVRQRSEFTLMAKRIG [STX5], the protein stability index by setting is: under setting [1], 3.15 ± 0.29; under setting [2], 3.35 ± 0.25.

As to QTRRASALIDRPAPYFERSSSKRY [EPB41L3], the protein stability index is, setting by setting: under setting [1], 4.18 ± 0.24; under setting [2], 4.17 ± 0.3.

QVAPLTHVFQRQKSELSDGIAILV [TRIM55]: the protein stability index reads like this: under setting [1], 2.26 ± 0.49; under setting [2], 2.26 ± 0.22.

As for QVITLDQVLDEVIPIHGKGNFPTM [TENT5D], the protein stability index under setting [1] worked out at 2.29 ± 0.24 and the protein stability index under setting [2] is 2.32 ± 0.25.

QWLRPHVSTKEQILDLLVLEQFLS [ZSCAN9]: the protein stability index runs as follows: under setting [1], 2.07 ± 0.5; under setting [2], 2.22 ± 0.44.

QYEKMAEKNRKDAEDWFFSKTEEL [KRT17]: the protein stability index is, setting by setting: under setting [1], 4.68 ± 0.18; under setting [2], 4.86 ± 0.18.

For RAPQGCSGVDECARQEGLTFFGTE [PBXIP1], the protein stability index runs as follows: under setting [1], 4.01 ± 0.35; under setting [2], 4.3 ± 0.55.

For RAVQGPEETVTQDCLQLIADSETP [TNFSF13B], the protein stability index worked out at 5.38 ± 0.2 under setting [1] and 5.38 ± 0.15 under setting [2].

In the case of RCGYRLVRRQRSADEQLHCAGKAK [ESR2], the protein stability index reads like this: under setting [1], 3.69 ± 0.36; under setting [2], 3.91 ± 0.26.

RDEESFFGERRIPRGRRISVICRS [ALKBH7]: the protein stability index came to 3.24 ± 0.24 under setting [1] and 3.65 ± 0.24 under setting [2].

With RDEHRARAMKIPFTNDKIINLPVE [NFE2L1], the protein stability index came out at 4.12 ± 0.36 under setting [1] and 3.95 ± 0.14 under setting [2].

As for RDNAELENLIRERSQQQEPLLCPS [KRT33B], the protein stability index under setting [1] came to 4.98 ± 0.23 and the protein stability index under setting [2] worked out at 4.87 ± 0.21.

With REAKEGDCGDILRLIRELAEFEKL [SAT2], the protein stability index is, setting by setting: under setting [1], 2.95 ± 0.3; under setting [2], 3.09 ± 0.47.

The sequence REAKMICFKSVAKTPYDTSRRQEK [ELOA2] registered a protein stability index under setting [1] of 3.97 ± 0.22 and a protein stability index under setting [2] of 4.11 ± 0.58.

With REPYYARPEPELETFSPPLPAGPG [CPXM2], the protein stability index is, setting by setting: under setting [1], 4.7 ± 0.26; under setting [2], 4.47 ± 0.38.

On to RETLKRKVSGNRCASPVTGPGSKR [ESR2], for which the protein stability index reads like this: under setting [1], 3.92 ± 0.32; under setting [2], 4.1 ± 0.2.

Turning to RETNKSRGFAFVTFESPADAKDAA [RBMX], the protein stability index under setting [1] came to 4.34 ± 0.32 and the protein stability index under setting [2] is 4.39 ± 0.38.

Regarding RGAPRGGGRGGSRSDRGGGRSRY [RBMX], the protein stability index worked out at 5.34 ± 0.14 (treatment: DMSO, c terminus: native) and 5.33 ± 0.11 (treatment: MLN4924 1 uM, 8 h, c terminus: native).

Take RGAQGVILVYDIANRWSFEGMDRW [RAB40A]: the protein stability index stood at 2.57 ± 0.37 under setting [1] and 2.28 ± 0.28 under setting [2].

With RGDERILSILRHQNLLKELQDLAL [CHGA], the protein stability index runs as follows: under setting [1], 2.36 ± 0.4; under setting [2], 2.41 ± 0.29.

Sequence RGIIMTFGSGSNGCLGHGSLTDIS [NEK8] yielded a protein stability index under setting [1] of 2.45 ± 0.22 and a protein stability index under setting [2] of 2.4 ± 0.31.

RGLGLGGRRLKSPQAPDPEEEENR [FANCE]: the protein stability index reads like this: under setting [1], 5.11 ± 0.23; under setting [2], 5.58 ± 0.38.

For the sequence RGNVVLRAQMIRNEYRKLHPVLHK [TRIM43], the protein stability index came to 2.25 ± 0.38 under setting [1] and 2.77 ± 0.56 under setting [2].

Turning to RHTSPVFSPANPESSMEDCLAHLG [BCL2L13], the protein stability index is, setting by setting: under setting [1], 4.24 ± 0.069; under setting [2], 4.31 ± 0.29.

Consider RILGLDQKKDCVPLMKPHRPWADT [HESX1], for which the protein stability index is, setting by setting: under setting [1], 2.34 ± 0.17; under setting [2], 2.36 ± 0.24.

Turning to RKDKDVARLQDFQELELVLMISEN [ANKRD40], the protein stability index runs as follows: under setting [1], 2.1 ± 0.47; under setting [2], 2.13 ± 0.56.

On to RKPSVPWQRQMDQPQDRNQALGTH [RASAL3], for which the protein stability index turned out to be 4.08 ± 0.16 under setting [1] and 4.21 ± 0.19 under setting [2].

For RLCTWLLALSPDLSLSNATVLTRS [FANCE], the protein stability index runs as follows: under setting [1], 2.92 ± 0.47; under setting [2], 3.02 ± 1.

For RLLKTLETSRSHDLEAVVPQNGSE [ATP23], the protein stability index stood at 4 ± 0.23 under setting [1] and 4.09 ± 0.19 under setting [2].

On to RLLSHDQVAMPYQWEYPYLLSILP [JAGN1], for which the protein stability index worked out at 2.15 ± 0.19 under setting [1] and 1.99 ± 0.16 under setting [2].

For RLTSQDWERVHLIVAGGYDERVLE [ALG2], the protein stability index is, setting by setting: under setting [1], 3.06 ± 0.28; under setting [2], 3.21 ± 0.27.

RLVPGGQRPADVPEPGRAGYPAPR [HAGHL]: the protein stability index is, setting by setting: under setting [1], 4.59 ± 0.13; under setting [2], 4.68 ± 0.1.

In turn, RLWRLFQTLDVNRDGGLCVNDLAV [SLC25A25] showed a protein stability index under setting [1] of 2.56 ± 0.2 and a protein stability index under setting [2] of 2.49 ± 0.17.

For RNLGSINTELQDVQRIMVANIEEV [SEC22B], the protein stability index runs as follows: under setting [1], 4.1 ± 0.15; under setting [2], 4.05 ± 0.044.
